# Test results as given in patent US20090318342A1, “Compounds” (IMPERIAL INNOVATIONS LIMITED, priority 2005, published 2009).
# Experiments:
# [1] = system: porcine articular cartilage; experiment: Retinoic acid-stimulated porcine articular cartilage, GAG release; type: cell-based
# Method: Porcine articular cartilage from the metacarpophalangeal joints of 3-9 month old pigs is dissected into small shavings approximately 3 mm long and 2-3 mm wide. After dissection, the cartilage is allowed to rest for 24 h at 37° C. under 5% CO2 in DMEM containing penicillin-streptomycin, amphotericin B, and 5% fetal calf serum. The medium is then replaced with fresh media and the cartilage is rested for a further 24-48 h. Each cartilage piece is then placed in one well of a round bottom 96-well plate with 200 μl of serum-free DMEM with or without 10-100 ng/ml IL-1α or 1 μM retinoic acid and various concentrations of each TIMP-3 mutant. After 3 days, all of the conditioned media are harvested and stored at −20° C. until use.
# (§1) GAG released into the conditioned media is measured in duplicate using a modification of the dimethylmethylene blue (DMMB) assay as described in Farndale et al.. Shark chondroitin sulfate (0-2.62 μg) is used as standard. The % of total GAG released into the medium is calculated as follows: % of total GAG released=(total GAG in the medium)/(total GAG in the medium+total GAG remaining in the cartilage).
# [2] = system: bovine nasal cartilage explants; experiment: IL-1α-stimulated bovine nasal cartilage explants, GAG release; type: cell-based; settings: 3 days
# Method: as §1
# Bovine nasal cartilage explants were stimulated with IL-1α in the presence or absence of N-TIMP-1, TIMP-2, or N-TIMP-3 for 3 days.
# [3] = biological target: T1, catalytic domain of stromelysin 1 (MMP-3(ΔC)) (Homo sapiens, UniProt P08254); settings: Table I; data taken from ref. 8; read-out: Ki(app) MMP-3(ΔC); cited from earlier work
# T1 construct: the catalytic domains of stromelysin 1 (MMP-3(ΔC)) and membrane-type 1 MMP (MMP-14)
# T1 sequence (P08254 100-272 limits assumed, stated change not applied): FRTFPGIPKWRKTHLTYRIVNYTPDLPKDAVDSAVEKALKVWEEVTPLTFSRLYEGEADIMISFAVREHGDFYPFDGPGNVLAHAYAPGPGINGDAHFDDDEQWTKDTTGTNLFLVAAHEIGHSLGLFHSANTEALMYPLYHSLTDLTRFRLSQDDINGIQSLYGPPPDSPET
# [4] = system: aggrecanase activity in IL-1α- and retinoic acid-stimulated cartilage; experiment: Aggrecanase-generated aggrecan fragments in cartilage conditioned media, Western analysis; type: cell-based; settings: IL-1α- and retinoic acid-stimulated cartilage
# From the text: Aggrecan fragments released into the conditioned medium are deglycosylated by digestion with chondroitinase ABC and keratanase and the samples are subjected to SDS/PAGE and Western blotting analysis as described by Little et al.. The primary antibodies used to detect aggrecanase-generated and MMP-generated aggrecan fragments are BC-3 and BC-14, respectively. Antigen-antibody complexes are detected by anti-mouse AP-linked donkey antibody and the AP substrate.
# Conditioned media from the above experiments were analyzed by monoclonal antibodies that recognize either the aggrecanase-generated aggrecan neoepitope ARGSV or the MMP-generated aggrecan neoepitope FFGVG. In concordance with GAG release, there was an increase in the amount of aggrecanase-generated aggrecan fragments released upon treatment with either stimulus, but no MMP-generated fragments were detected.
molecule,measurement,setting,value
"N-TIMP-3: N-terminal inhibitory domain of TIMP-3 (residues 1 to 121), C-terminally His-tagged, wild-type (protein) CTCSPSHPQDAFCNSDIVIRAKVVGKKLVKEGPFGTLVYTIKQMKMYRGFTKMPHVQYIHTEASESLCGLKLEVNKYQYLLTGRVYDGKMYTGLCNFVERWDQLTLSQRKGLNYRYHLGCN",Inhibition of retinoic acid-stimulated GAG release,[1],"inhibited by N-TIMP-3, but to a lesser extent compared with the IL-1α-stimulated cartilage"
same,Inhibition of IL-1α-stimulated GAG release,[2],significantly inhibited
same,Ki,[3],67 ± 2.8 nM
same,Release of aggrecanase-generated aggrecan fragments,[4]; 0.05 μM,partially inhibited
same,Release of aggrecanase-generated aggrecan fragments,[4]; 0.1 μM,completely blocked
